Measured values as given in article PMC5663958, “DNA Ligase C and Prim-PolC participate in base excision repair in mycobacteria” (Nature Communications, 2017).

Legend:
[1] = biological target: T1, DNA ligase C1 (LigC1, msmeg_6302), recombinant, His-tagged construct (M. smegmatis, UniProt A0R5T2 1-348); assay: far-Western, overlay or dot blot; recombinant proteins slot-blotted on a membrane (3 μg of the possible interactors, 50 ng of the probed protein), blocked in TBS, 0.05% Tween 20, 5% milk; incubated with 5 μg ml^−1 Prim-PolC or LigC1; detected with Prim-PolC- or LigC1-specific antibodies; details: both partners purified
T1 construct: ATP-dependent DNA ligase C1 of Mycobacterium smegmatis, locus msmeg_6302; Cloned in pET28; also called 6xHis-LigC; source: E. coli Origami B pLysS, purified (Ni Sepharose, ion exchange, gel filtration)
T1 sequence (looked up): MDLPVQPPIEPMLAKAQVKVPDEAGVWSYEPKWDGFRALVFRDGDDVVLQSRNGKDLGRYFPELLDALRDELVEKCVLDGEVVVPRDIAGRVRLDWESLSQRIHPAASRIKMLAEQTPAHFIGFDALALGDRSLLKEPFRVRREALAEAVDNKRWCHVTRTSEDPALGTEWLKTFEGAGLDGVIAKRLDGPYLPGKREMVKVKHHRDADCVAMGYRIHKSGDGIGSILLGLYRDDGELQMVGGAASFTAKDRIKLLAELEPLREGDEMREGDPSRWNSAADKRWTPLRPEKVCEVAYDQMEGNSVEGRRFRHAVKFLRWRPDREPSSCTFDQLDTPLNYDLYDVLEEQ

[2] = biological target: T2, tag-free LigC1 (6xHis-LigC subjected to thrombin digestion) (M. smegmatis, UniProt A0R5T2 1-348); assay: pull-down; FPG-6xHis or 6xHis-MPG bound to Ni-NTA resin in 50 mM Tris pH 8.0, 150 mM NaCl, 1 h at 4 °C; tag-free LigC or BSA added for 2 h; equimolar proteins; eluted with imidazole; SDS-PAGE and Coomassie staining; details: both partners purified
T2 construct: ATP-dependent DNA ligase C1 of Mycobacterium smegmatis, locus msmeg_6302; same construct as m2 with the tag cut off by thrombin; The methods say 'LigC', the results 'LigC1'; source: E. coli Origami B pLysS, purified; His-tag removed by a standard thrombin digestion; not shown: 6xHis, N-terminal, cleaved
T2 sequence (looked up): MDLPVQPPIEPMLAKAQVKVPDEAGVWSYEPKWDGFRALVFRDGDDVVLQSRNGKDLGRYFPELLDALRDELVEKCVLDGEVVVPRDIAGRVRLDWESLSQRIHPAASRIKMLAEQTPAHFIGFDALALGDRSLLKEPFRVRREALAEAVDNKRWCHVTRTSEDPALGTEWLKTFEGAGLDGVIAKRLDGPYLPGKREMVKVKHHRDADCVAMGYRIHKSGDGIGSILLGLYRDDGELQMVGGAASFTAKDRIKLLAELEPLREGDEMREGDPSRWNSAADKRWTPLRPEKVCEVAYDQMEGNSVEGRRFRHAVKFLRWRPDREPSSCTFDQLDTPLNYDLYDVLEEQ

binding result [1]: binds
binding result [2]: binds
B1: FPG (MutM) bifunctional glycosylase, recombinant (enzyme, M. smegmatis, UniProt A0QV21 1-285, looked up)
chain: MPELPEVEVVRRGLAEHVTGKTITGVRVHHPRAVRRHEAGPADLTARLLDVRITGTGRRGKYLWLTLDDSAALVVHLGMSGQMLLGPIRDTRHLRIAAVLDDGTALSFVDQRTFGGWQLTEMVTVDGTDVPEPVAHIARDPLDPLFDRDRVVTVLRGKHSEIKRQLLDQTVVSGIGNIYADEALWRTKINGARIAAALPRRRLAELLDAAAEVMTDALGQGGTSFDSLYVNVNGESGYFDRSLDAYGREGEPCRRCGAIMRREKFMNRSSFYCPRCQPRPRVPRV
notes: Bifunctional DNA glycosylase FPG (MutM) of Mycobacterium smegmatis; Cloned in pET28; also called FPG-6xHis; source: E. coli Origami B pLysS, purified (Ni Sepharose, ion exchange, gel filtration); not shown: 6xHis, C-terminal, kept
